Source: US20190055314A1 (ADAGENE, published 2019)

T1: full-length mouse CD137 on the cell surface (mouse, UniProt P20334 24-178)
T1 sequence: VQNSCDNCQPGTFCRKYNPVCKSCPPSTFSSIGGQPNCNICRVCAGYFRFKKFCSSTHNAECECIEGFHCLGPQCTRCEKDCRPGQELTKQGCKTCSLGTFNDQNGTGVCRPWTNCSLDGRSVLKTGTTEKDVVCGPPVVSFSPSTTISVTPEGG

T2: CD95
T2 chain: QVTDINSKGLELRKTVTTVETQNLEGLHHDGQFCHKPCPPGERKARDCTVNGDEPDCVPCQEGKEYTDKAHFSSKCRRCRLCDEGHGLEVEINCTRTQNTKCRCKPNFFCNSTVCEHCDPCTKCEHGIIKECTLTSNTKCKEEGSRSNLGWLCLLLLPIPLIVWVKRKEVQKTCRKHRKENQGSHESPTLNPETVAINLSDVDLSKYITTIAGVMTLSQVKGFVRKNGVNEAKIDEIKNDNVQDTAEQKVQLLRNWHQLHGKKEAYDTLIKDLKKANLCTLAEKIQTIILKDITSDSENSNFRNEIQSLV

T3: full-length monkey CD137 on the cell surface (cynomolgus monkey, UniProt Q07011 24-179 (human entry))
T3 chain: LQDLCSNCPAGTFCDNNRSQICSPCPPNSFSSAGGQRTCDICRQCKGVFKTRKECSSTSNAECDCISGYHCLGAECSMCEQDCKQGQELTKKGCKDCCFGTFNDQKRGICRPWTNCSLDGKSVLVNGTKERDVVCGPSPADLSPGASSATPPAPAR

T4: OX40 overexpressed on HEK293F cells (UniProt P43489 29-277, limits assumed)
T4 construct: whole, on cells
T4 sequence (looked up): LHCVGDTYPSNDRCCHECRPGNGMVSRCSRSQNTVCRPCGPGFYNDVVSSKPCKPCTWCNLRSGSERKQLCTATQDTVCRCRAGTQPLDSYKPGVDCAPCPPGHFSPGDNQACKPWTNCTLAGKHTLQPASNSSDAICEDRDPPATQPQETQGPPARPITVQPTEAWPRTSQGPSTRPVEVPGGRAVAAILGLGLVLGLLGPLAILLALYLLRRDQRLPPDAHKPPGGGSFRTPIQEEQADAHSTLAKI

T5: GITR overexpressed on HEK293F cells (UniProt Q9Y5U5 26-241, limits assumed)
T5 construct: whole, on cells
T5 sequence (looked up): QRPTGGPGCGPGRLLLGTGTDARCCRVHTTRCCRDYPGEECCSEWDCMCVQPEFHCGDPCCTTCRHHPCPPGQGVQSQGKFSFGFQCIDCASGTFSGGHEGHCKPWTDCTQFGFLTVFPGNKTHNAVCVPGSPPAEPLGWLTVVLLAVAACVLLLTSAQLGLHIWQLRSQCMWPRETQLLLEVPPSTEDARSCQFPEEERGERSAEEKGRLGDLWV

T6: CD27 overexpressed on HEK293F cells (UniProt P26842 20-260, limits assumed)
T6 construct: whole, on cells
T6 sequence (looked up): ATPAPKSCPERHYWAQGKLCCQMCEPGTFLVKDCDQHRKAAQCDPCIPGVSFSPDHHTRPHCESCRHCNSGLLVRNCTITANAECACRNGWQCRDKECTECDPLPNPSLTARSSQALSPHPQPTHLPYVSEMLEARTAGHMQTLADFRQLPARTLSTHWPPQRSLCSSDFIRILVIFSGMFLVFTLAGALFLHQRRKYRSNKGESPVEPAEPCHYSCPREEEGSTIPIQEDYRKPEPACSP

T7: mouse CD137 protein (Biacore) (mouse, UniProt P20334 24-178, limits assumed)
T7 construct: Construct used as SPR analyte not described
T7 sequence: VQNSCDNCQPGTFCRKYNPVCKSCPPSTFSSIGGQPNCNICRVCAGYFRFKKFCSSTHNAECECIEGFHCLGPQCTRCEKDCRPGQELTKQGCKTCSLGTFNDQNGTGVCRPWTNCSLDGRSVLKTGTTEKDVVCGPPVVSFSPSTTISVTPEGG


What was measured:
[1] = molecular target: T1, full-length mouse CD137 on the cell …; experiment: flow cytometry, HEK293F cells expressing CD137 [Cont.]
[2] = molecular target: T2, CD95; experiment: flow cytometry, HEK293F cells expressing the receptor [Cont.]
[3] = molecular target: T3, full-length monkey CD137 on the cell …; experiment: flow cytometry, HEK293F cells expressing CD137 or mutant [Cont.]
[4] = molecular target: T4, OX40 overexpressed on HEK293F cells; experiment: flow cytometry, HEK293F cells expressing the receptor, antibody 100 nM [Cont.]
[5] = molecular target: T8, CD40 overexpressed on HEK293F cells (UniProt P25942 21-277, limits assumed); experiment: as above
T8 construct: whole, on cells

[6] = molecular target: T5, GITR overexpressed on HEK293F cells; experiment: as above
[7] = molecular target: T6, CD27 overexpressed on HEK293F cells; experiment: as above
[8] = molecular target: T9, human CD137-His6 (Sino Biological #10041-H08H) (human, UniProt Q07011 24-186); experiment: SPR Biacore, IgG captured; Table 3 run, IgG captured by anti-human Fc; Table 1b gives 3.8E-08 M from a separate measurement
T9 construct: Bought; also called human CD137 protein; not shown: His6 tag

[9] = molecular target: T10, Hu_T35A (human, UniProt Q07011 18-255); experiment: flow cytometry, HEK293F
T10 construct: On HEK293F; also called human CD137 T35A

[10] = molecular target: T11, Hu_F36A (human, UniProt Q07011 18-255); experiment: flow cytometry, HEK293F
T11 construct: On HEK293F; also called human CD137 F36A

[11] = molecular target: T12, Hu_F53A (human, UniProt Q07011 18-255); experiment: flow cytometry, HEK293F
T12 construct: On HEK293F; also called human CD137 F53A

[12] = molecular target: T13, Hu_F72A (human, UniProt Q07011 18-255); experiment: flow cytometry, HEK293F
T13 construct: On HEK293F; also called human CD137 F72A

[13] = molecular target: T14, Hu_N83A (human, UniProt Q07011 18-255); experiment: flow cytometry, HEK293F
T14 construct: On HEK293F; also called human CD137 N83A

[14] = molecular target: T9, human CD137-His6 (Sino Biological …); experiment: SPR Biacore, IgG captured
[15] = molecular target: T7, mouse CD137 protein (Biacore); experiment: SPR Biacore, IgG captured
[16] = molecular target: T1, full-length mouse CD137 on the cell …; experiment: cell-based or functional assay

T11 sequence (Q07011 18-255 F36A): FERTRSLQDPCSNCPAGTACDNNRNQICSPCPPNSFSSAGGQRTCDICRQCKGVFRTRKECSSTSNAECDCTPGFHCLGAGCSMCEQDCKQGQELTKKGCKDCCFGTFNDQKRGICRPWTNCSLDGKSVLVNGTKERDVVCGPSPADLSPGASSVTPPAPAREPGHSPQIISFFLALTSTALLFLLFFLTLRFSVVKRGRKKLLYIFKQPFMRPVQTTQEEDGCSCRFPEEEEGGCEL
T8 sequence (P25942 21-277 limits assumed): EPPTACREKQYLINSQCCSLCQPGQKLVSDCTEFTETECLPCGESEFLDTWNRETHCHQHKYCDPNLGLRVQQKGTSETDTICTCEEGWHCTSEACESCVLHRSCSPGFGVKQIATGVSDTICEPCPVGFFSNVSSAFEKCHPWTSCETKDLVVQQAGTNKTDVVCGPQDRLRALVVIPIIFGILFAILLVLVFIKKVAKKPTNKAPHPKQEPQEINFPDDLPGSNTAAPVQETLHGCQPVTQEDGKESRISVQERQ
T13 sequence (Q07011 18-255 F72A): as the sequence (Q07011 18-255 F36A) above, with A19F, F55A counted along it
T10 sequence (Q07011 18-255 T35A): as the sequence (Q07011 18-255 F36A) above, with T18A, A19F counted along it
T14 sequence (Q07011 18-255 N83A): as the sequence (Q07011 18-255 F36A) above, with A19F, N66A counted along it
T12 sequence (Q07011 18-255 F53A): as the sequence (Q07011 18-255 F36A) above, with A19F, F36A counted along it

Binder | binding result [1] | binding result [2] | % in upper right quadrant [3] | Mean [4] | Mean [5] | Mean [6] | Mean [7] | Kd [8] | binding result [9] | binding result [10] | binding result [11] | binding result [12] | binding result [13] | Kd [14] | Kd [15] | NFκB luciferase reporter, 293T cells with mouse CD137: EC50 (read off the curve) [16]
AG10059 (antibody, human IgG4 S228P, kappa, V domains shown) VH: EVQLVESGGGLVQPGGSLRLSCAASGYSITSGHYWAWIRQAPGKGLEWVSSISGYGSTTYYADSVKGRFTISRDNSKNTLYLQLNSLRAEDTAVYYCARGGSDAVLGDWFAYWGQGTLVTVSS VL: DIQLTQSPSSLSASVGDRVTITCRASQGIGSFLAWYQQKPGKAPKLLIYDASNLETGVPSRFSGSGSGTDFTLTISSLQPEDFATYYCQQGYYLWTFGQGTKVEIKR | no binding (tested: 100 nM (text paragraph 220)) | no binding (tested: 100 nM (text paragraph 226)) | 42.4% | 6780 | 7260 | 5980 | 13200 | 24.2 nM | – | – | – | – | – | – | – | –
AG10058 (antibody, human IgG4 S228P, kappa, V domains shown) VH: EVQLVESGGGLVQPGGSLRLSCAASGFSLSTSGVGVGWIRQAPGKGLEWLALIDWDDDKYYSPSLKSRLTISRDNSKNTLYLQLNSLRAEDTAVYYCARGGSDTVLGDWFAYWGQGTLVTVSS VL: DIQLTQSPSSLSASVGDRVTITCRASQSVSPYLAWYQQKPGKAPKLLIYDASSLESGVPSRFSGSGSGTDFTLTISSLQPEDFATYYCQQGYSLWTFGQGTKVEIKR | – | – | – | – | – | – | – | – | no binding | no binding | no binding | no binding | no binding | 5.9 nM | 15.2 nM | ~3 nM
